Assay results as given in US20230322924A1 (Janssen / Centocor, published 2023).

Columns and labels:
[1] = target: human IL1RAP on NCI-H1975 cells (human); assay: cell-based or functional assay
[2] = target: Human CD33 full length (human, UniProt P20138 18-364); assay: cell-based or functional assay
[3] = target: T1, human PSMA on cells (LNCaP) (human, UniProt Q04609 1-750); assay: flow cytometry, mammalian Fab supernatant on LNCaP cells, anti-human kappa-RPE
T1 construct: whole, on cells; also called LNCaP cells
Experimental: Individual Fab clones were isolated from the round 3 output of all panning experiments following pIX excision. Fab clones were tested for binding to chimp and cyno PSMA expressing HEK cells, as well as to human PSMA on LNCaP cells. Briefly, PSMA expressing cells were aliquoted into a V-bottom plate (CoStar 3357) at a density of 200,000 per well and incubated with (100 μl) supernatants expressing Fab fragments for 1 hour on ice. Cells were washed twice with PBS containing 2% FBS, and stained with a mouse anti-human kappa-RPE antibody (Life Technologies cat #MH10514) for 1 hour on ice. Cells were washed twice with PBS containing 2% FBS and resuspended in […] of the same wash buffer. Plates were read on a BD FACS Array flow cytometer. FACS data was analyzed in FlowJo software by live gating the healthy population of cells using forward scatter and side scatter, and then analyzing the cells within this gate for PE staining. Mean fluorescence intensity (MFI) was calculated and exported into Microsoft Excel. […] Fabs were sequenced and moved forward for cloning into mammalian expression vector for rescreening. True positives were selected from the binding of mammalian cell expressed Fab supernatants to PSMA-expressing cell lines.
FIGS. 22A, 22B, 22C and 22D show the titration curves for anti-PSMA panning hits vs. LNCaP cells. […] Binding profiles among hits were compared across cell lines expressing different species of PSMA.

[4] = target: T2, Human CD33 ECD-HSA (human); assay: SPRi off-rate screen (IBIS MX96)
T2 construct: CD33 ECD fused at the C-terminus to monomeric HSA (C58S) and a six-histidine tag; also called C33W2; huCD33 ECD-HSA

[5] = target: T3, TMEW1 (TMEFF2-FL-ECD-His-Avitag) (human, UniProt Q9UIK5 41-320); assay: Biacore 8K SPR, mAb captured on anti-human Fc, single cycle kinetics
T3 construct: Human TMEFF2 ECD with C-terminal G3S, 6xHis tag and Avi-tag, all in the entry; also called TMEFF2 ECD
T3 sequence: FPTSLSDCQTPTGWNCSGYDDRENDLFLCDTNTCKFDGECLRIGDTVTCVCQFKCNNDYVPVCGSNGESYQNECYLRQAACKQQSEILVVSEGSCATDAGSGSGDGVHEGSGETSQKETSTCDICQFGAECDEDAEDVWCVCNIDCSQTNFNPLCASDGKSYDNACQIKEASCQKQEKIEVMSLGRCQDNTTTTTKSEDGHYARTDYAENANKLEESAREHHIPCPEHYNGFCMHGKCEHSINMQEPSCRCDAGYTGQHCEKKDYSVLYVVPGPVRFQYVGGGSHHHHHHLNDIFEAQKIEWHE
Experimental: The binding of anti-TMEFF2 mAbs to human TMEFF2 ECD was measured by Biacore 8K SPR. The format of the assay was to capture the mAbs using a high density anti-human Fc surface, then inject human TMEFF2 concentration titration using a single cycle kinetics method. […] The mAbs were captured on the anti-human Fc IgG surface at 0.5 μg/ml (˜200-300 RU) on flow cell 2. The running buffer was then changed to HBSP+100 ug/ml BSA. TMEFF2 ECD at 30 nM concentration in 3-fold dilution series was injected from low to high concentration using single cycle kinetics method. The off-rate was monitored 30 minutes after the last or highest concentration injection and then the surface was regenerated using 0.8% phosphoric acid (Bio-Rad). A buffer blank run, capturing the same mAbs and using the same conditions of sample run was also completed. The raw data were processed by subtracting two sets of reference data from the response data: 1) reference flow cell 1 subtracted from sample flow cell 2 and 2) buffer blank run from experimental run. The processed data at all concentrations for each mAb were globally fit to a 1:1 simple Langmuir binding model to extract estimates of the kinetic (kon, koff) and affinity (KD) constants.

[6] = target: T4, Rh-integrin a4b7 (UniProt P13612 34-977; P26010 20-723, limits assumed); assay: Biacore 8K SPR, antibody over immobilised protein
T4 construct: rh read as recombinant human
Experimental: (§1) Non-specific binding of the lead molecule to unrelated surfaces is determined by biosensor technology (Biacore 8K). Antibody is passed over SPR surfaces coated with unrelated proteins. […] Irrelevant surfaces include negatively charged protein (Soy Trypsin Inhibitor), positively charged protein (Lysozyme and β-defensin), hydrophobic (Rh-integrin a4b7), human IgG, sticky protein (Rh-CD19). Proper controls are used in this experiment. Lead is flown over two surfaces, one is a blank and the other has a molecule directly immobilized. The response unit (RU) level is determined by subtracting the blank RU from the test surface RU. […] A response unit ≥100 predicts high risks for non-specific binding to charged/hydrophobic/IgG surfaces which would create challenges during manufacturing and translate to poor PK properties.

[7] = target: T5, Rh-CD19 (UniProt P15391 20-291, limits assumed); assay: Biacore 8K SPR, antibody over immobilised protein
T5 construct: rh read as recombinant human
T5 sequence (looked up): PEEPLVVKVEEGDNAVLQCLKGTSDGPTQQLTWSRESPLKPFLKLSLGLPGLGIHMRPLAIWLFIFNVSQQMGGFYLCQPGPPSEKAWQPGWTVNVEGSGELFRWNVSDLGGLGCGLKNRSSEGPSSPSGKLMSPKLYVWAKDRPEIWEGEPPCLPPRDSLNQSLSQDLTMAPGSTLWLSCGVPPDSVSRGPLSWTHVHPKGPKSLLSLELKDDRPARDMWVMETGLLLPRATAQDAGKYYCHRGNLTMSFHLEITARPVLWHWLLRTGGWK
Experimental: as §1

T1 sequence (Q04609 whole entry): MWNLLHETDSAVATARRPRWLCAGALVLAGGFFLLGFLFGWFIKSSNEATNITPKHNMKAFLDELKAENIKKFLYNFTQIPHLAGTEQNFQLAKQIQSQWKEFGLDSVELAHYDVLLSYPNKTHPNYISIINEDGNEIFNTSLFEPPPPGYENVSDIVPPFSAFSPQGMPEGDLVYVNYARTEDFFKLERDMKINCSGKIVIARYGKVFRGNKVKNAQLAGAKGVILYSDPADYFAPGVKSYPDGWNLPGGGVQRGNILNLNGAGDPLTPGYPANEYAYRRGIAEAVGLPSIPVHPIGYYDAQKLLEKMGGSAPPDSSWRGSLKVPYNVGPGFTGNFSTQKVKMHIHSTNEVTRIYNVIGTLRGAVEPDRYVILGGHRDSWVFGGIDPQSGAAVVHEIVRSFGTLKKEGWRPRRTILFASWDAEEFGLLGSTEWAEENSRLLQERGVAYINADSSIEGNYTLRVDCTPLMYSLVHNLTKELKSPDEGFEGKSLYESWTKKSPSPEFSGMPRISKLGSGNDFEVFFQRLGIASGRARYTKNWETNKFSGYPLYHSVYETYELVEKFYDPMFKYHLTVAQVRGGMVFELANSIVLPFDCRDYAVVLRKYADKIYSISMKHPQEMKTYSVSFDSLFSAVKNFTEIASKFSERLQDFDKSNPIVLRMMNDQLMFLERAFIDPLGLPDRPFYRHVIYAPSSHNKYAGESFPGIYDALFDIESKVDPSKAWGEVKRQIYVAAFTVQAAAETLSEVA
Chain of Human CD33 full length (P20138 18-364 limits assumed): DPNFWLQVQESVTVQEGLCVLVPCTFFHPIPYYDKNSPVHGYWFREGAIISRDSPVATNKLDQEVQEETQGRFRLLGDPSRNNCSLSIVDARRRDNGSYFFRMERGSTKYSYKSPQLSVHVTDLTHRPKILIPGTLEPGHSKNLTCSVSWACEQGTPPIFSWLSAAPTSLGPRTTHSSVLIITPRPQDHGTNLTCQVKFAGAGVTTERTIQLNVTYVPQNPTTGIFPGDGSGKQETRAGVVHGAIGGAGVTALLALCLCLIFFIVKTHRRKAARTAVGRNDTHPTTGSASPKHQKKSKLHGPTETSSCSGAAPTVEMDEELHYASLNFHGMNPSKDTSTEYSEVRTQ

B1: IC3B19 (bispecific antibody, human IgG4 S228P, kappa, F234A L235A)
heavy: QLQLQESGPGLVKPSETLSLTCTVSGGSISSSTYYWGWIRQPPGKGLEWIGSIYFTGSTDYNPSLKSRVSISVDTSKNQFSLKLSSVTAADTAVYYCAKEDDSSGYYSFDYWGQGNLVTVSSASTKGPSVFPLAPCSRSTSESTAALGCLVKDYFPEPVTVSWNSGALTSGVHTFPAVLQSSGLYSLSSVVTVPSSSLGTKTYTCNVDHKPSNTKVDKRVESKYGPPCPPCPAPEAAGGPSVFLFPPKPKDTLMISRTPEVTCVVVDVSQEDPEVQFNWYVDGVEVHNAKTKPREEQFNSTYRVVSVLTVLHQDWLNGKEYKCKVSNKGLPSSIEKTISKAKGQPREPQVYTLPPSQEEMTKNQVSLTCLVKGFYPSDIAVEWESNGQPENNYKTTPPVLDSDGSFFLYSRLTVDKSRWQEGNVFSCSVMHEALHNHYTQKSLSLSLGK
light: DIQLTQSPSFLSASVGDRVTITCRASQGISSYLAWYQQKPGKAPKLLIYAASTLQSGVPSRFSGSGSGTEFTLTISSLQPEDFATYYCQQVNSYPLTFGGGTKVEIKRTVAAPSVFIFPPSDEQLKSGTASVVCLLNNFYPREAKVQWKVDNALQSGNSQESVTEQDSKDSTYSLSSTLTLSKADYEKHKVYACEVTHQGLSSPVTKSFNRGEC
VH: EVQLVESGGGLVQPGGSLRLSCAASGFTFNTYAMNWVRQAPGKGLEWVARIRSKYNNYATYYAASVKGRFTISRDDSKNSLYLQMNSLKTEDTAVYYCARHGNFGNSYVSWFAYWGQGTLVTVSS
VL: QTVVTQEPSLTVSPGGTVTLTCRSSTGAVTTSNYANWVQQKPGQAPRGLIGGTNKRAPGTPARFSGSLLGGKAALTLSGVQPEDEAEYYCALWYSNLWVFGGGTKLTVL
[1]
  cytotoxicity EC50, caspase 3/7 assay, NCI-H1975 cells with pan T cells: 0.018 nM

B2: IC3B34 (bispecific antibody, human IgG4 S228P, kappa, F234A L235A)
heavy: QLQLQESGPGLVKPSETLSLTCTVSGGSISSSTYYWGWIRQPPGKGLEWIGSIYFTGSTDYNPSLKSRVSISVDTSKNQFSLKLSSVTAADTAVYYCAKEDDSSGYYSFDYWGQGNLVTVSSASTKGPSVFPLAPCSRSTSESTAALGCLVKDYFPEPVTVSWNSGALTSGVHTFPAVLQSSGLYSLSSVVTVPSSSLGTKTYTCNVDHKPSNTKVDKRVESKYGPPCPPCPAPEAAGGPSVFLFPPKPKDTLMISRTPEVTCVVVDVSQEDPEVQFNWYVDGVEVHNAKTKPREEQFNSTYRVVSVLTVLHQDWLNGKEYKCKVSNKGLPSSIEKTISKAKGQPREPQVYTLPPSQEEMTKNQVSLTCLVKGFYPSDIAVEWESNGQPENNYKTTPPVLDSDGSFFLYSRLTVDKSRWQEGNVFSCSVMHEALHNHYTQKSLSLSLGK
light: DIQLTQSPSFLSASVGDRVTITCRASQGISSYLAWYQQKPGKAPKLLIYAASTLQSGVPSRFSGSGSGTEFTLTISSLQPEDFATYYCQQVNSYPLTFGGGTKVEIKRTVAAPSVFIFPPSDEQLKSGTASVVCLLNNFYPREAKVQWKVDNALQSGNSQESVTEQDSKDSTYSLSSTLTLSKADYEKHKVYACEVTHQGLSSPVTKSFNRGEC
VH: QVQLQQSGPRLVRPSQTLSLTCAISGDSVFNNNAAWSWIRQSPSRGLEWLGRTYYRSKWLYDYAVSVKSRITVNPDTSRNQFTLQLNSVTPEDTALYYCARGYSSSFDYWGQGTLVTVSS
VL: QSALTQPASVSGSPGQSITISCTGTSSNIGTYKFVSWYQQHPDKAPKVLLYEVSKRPSGVSSRFSGSKSGNTASLTISGLQAEDQADYHCVSYAGSGTLLFGGGTKLTVL
[1]
  cytotoxicity EC50, caspase 3/7 assay, NCI-H1975 cells with pan T cells: 0.057 nM

B3: C3CB97 (bispecific antibody, IgG4, V domains shown)
VH 1: QVQLVQSGSELRKPGASVKVSCKASGYTFTNYAMNWVRQAPGQGLEWMGWINTNTGNPTYAQGFTGRFVFSLDTSVSSAYLQISSLKAEDTAMYYCATDRDRGTDYWGQGTLVTVSS
VL 1: QSALTQPASVSGSPGQSITISCTGTSSDVGDYNYVSWYQQHPGKVPKLMIYDVSNRPSGVSNRFSGSMSGNTASLTISGLQAEDEADYYCSSYSSSSALEVFGGGTKLTVL
VH 2: QVQLQQSGPRLVRPSQTLSLTCAISGDSVFNNNAAWSWIRQSPSRGLEWLGRTYYRSKWLYDYAVSVKSRITVNPDTSRNQFTLQLNSVTPEDTALYYCARGYSSSFDYWGQGTLVTVSS
VL 2: QSALTQPASVSGSPGQSITISCTGTSSNIGTYKFVSWYQQHPDKAPKVLLYEVSKRPSGVSSRFSGSKSGNTASLTISGLQAEDQADYHCVSYAGSGTLLFGGGTKLTVL
[2]
  Primary AML Cell Killing EC50: ~0.232 nM

B4: PSMM81 (Fab, V domains shown)
VH: QVQLVQSGAEVKKPGSSVKVSCKASGGTFDDYAISWVRQAPGQGLEWMGRIDPIEGTANYAQKFQGRVTITADESTSTAYMELSSLRSEDTAVYYCARDRYYYDGVYWYSDYFDYWGQGTLVTVS
VL: not shown
notes: Mammalian Fab supernatant; also called PSMB80
[3]
  EC50 (read off the curve): ~0.08 µg/mL

B5: C33B782 (antibody, IgG4, V domains shown)
VH: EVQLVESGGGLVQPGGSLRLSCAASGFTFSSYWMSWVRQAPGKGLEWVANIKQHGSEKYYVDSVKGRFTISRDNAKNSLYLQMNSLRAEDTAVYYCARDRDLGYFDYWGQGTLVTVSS
VL: SYELTQPPSVSVSPGQTASITCSGNKLGAKFASWYQQKPGQSPVLVIYQDNKRPSGIPERFSGSNSGNTATLTISGTQAVDEADYYCQAWDSSTVVFGGGTKLTVL
notes: also called C33H72/C33L40; C33F82
[4]
  koff: 0.000258 s⁻¹

B6: C33B792 (antibody, IgG4, V domains shown)
VH: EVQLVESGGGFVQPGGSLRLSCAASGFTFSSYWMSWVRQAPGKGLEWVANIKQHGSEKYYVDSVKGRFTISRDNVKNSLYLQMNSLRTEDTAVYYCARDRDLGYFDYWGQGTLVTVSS
VL: SYELTQPPSVSVSPGQTASITCSGDKLGNKYASWYQQKPGQSPVLVIYQDTKRPSGIPERVSGSNSGNTATLTISGTQAMDEADYHCQAWDSSTVVFGGGTKLTVL
notes: also called C33H87/C33L35; C33F92
[4]
  koff: 0.000427 s⁻¹

B7: TMEB757 (antibody, human IgG4 S228P, kappa, F234A L235A, V domains shown)
VH: EVQLLESGGGLVQPGGSLRLSCAASGFTFSSYSMSWVRQAPGKGLEWVSVISGSGGFTDYADSVKGRFTISRDNSKNTLYLHMNSLRAEDTAVYYCARMPLNSPHDYWGQGTLVTVSS
VL: AIQMTQSPSSLSASVGDRVTITCRASQGIRNDLGWYQQKPGKAPKLLIYAASSLQSGVPSRFSGSGSGTDFTLTISSLQPEDFATYYCLQDYNYPLTFGGGTKVEIKR
notes: IgG4 PAA anti-TMEFF2; re-engineered variant of TMEB675; also called TMEH460/B76L85; TMEFB757
[5]
  Kd: 0.31 nM
  koff: 0.000167 s⁻¹
  kon: 542000 M⁻¹ s⁻¹

B8: TMCB150 (bispecific antibody, human IgG4 S228P, kappa, lambda, F234A L235A)
heavy 1: not shown
light 1: not shown
heavy 2: QVQLQQSGPRLVRPSQTLSLTCAISGDSVFNNNAAWSWIRQSPSRGLEWLGRTYYRSKWLYDYAVSVKSRITVNPDTSRNQFTLQLNSVTPEDTALYYCARGYSSSFDYWGQGTLVTVSSASTKGPSVFPLAPCSRSTSESTAALGCLVKDYFPEPVTVSWNSGALTSGVHTFPAVLQSSGLYSLSSVVTVPSSSLGTKTYTCNVDHKPSNTKVDKRVESKYGPPCPPCPAPEAAGGPSVFLFPPKPKDTLMISRTPEVTCVVVDVSQEDPEVQFNWYVDGVEVHNAKTKPREEQFNSTYRVVSVLTVLHQDWLNGKEYKCKVSNKGLPSSIEKTISKAKGQPREPQVYTLPPSQEEMTKNQVSLTCLVKGFYPSDIAVEWESNGQPENNYKTTPPVLDSDGSFLLYSKLTVDKSRWQEGNVFSCSVMHEALHNHYTQKSLSLSLGK
light 2: QSALTQPASVSGSPGQSITISCTGTSSNIGTYKFVSWYQQHPDKAPKVLLYEVSKRPSGVSSRFSGSKSGNTASLTISGLQAEDQADYHCVSYAGSGTLLFGGGTKLTVLGQPKAAPSVTLFPPSSEELQANKATLVCLISDFYPGAVTVAWKADSSPVKAGVETTTPSKQSNNKYAASSYLSLTPEQWKSHRSYSCQVTHEGSTVEKTVAPTECS
notes: IgG4 PAA; also called TMEB762×CD3B376
[6]
  binding result: no binding (tested: response unit ≥100 predicts high risks)
[7]
  binding result: no binding (tested: response unit ≥100 predicts high risks)

B9: TMEB762 (antibody, human IgG4 S228P, kappa, F234A L235A, V domains shown)
VH: EVQLLESGGGLVQPGGSLRLSCAASGFTFSSYSMSWVRQAPGKGLEWVSVISGSGGFTDYADSVKGRFTISRDNSKNTLYLQMNSLRAEDTAVYYCARMPLNSPHDYWGQGTLVTVSS
VL: DIQMTQSPSSLSASVGDRVTITCRASQGIRNDLGWYQQKPGKAPKLLIYAASSLQSGVPSRFSGSGSGTDFTLTISSLQPEDFATYYCLQDYNYPLTFGGGTKVEIKR
notes: IgG4 PAA; also called TMEH459/DL3L129
[6]
  binding result: no binding (tested: response unit ≥100 predicts high risks)
[7]
  binding result: no binding (tested: response unit ≥100 predicts high risks)
